Positions count from the first letter of the chain named. Names and notes keep the numbering of the source.
B1: wild-type LonP1 lacking the mitochondrial targeting sequence, C-terminal 6xHis (enzyme)
chain: MTIPDVFPHLPLIAITRNPVFPRFIKIIEVKNKKLVELLRRKVRLAQPYVGVFLKRDDSNESDVVESLDEIYHTGTFAQIHEMQDLGDKLRMIVMGHRRVHISRQLEVEPEEPEAENKHKPRRKSKRGKKEAEDELSARHPAELAMEPTPELPAEVLMVEVENVVHEDFQVTEEVKALTAEIVKTIRDIIALNPLYRESVLQMMQAGQRVVDNPIYLSDMGAALTGAESHELQDVLEETNIPKRLYKALSLLKKEFELSKLQQRLGREVEEKIKQTHRKYLLQEQLKIIKKELGLEKDDKDAIEEKFRERLKELVVPKHVMDVVDEELSKLGLLDNHSSEFNVTRNYLDWLTSIPWGKYSNENLDLARAQAVLEEDHYGMEDVKKRILEFIAVSQLRGSTQGKILCFYGPPGVGKTSIARSIARALNREYFRFSVGGMTDVAEIKGHRRTYVGAMPGKIIQCLKKTKTENPLILIDEVDKIGRGYQGDPSSALLELLDPEQNANFLDHYLDVPVDLSKVLFICTANVTDTIPEPLRDRMEMINVSGYVAQEKLAIAERYLVPQARALCGLDESKAKLSSDVLTLLIKQYCRESGVRNLQKQVEKVLRKSAYKIVSGEAESVEVTPENLQDFVGKPVFTVERMYDVTPPGVVMGLAWTAMGGSTLFVETSLRRPQDKDAKGDKDGSLEVTGQLGEVMKESARIAYTFARAFLMQHAPANDYLVTSHIHLHVPEGATPKDGPSAGCTIVTALLSLAMGRPVRQNLAMTGEVSLTGKILPVGGIKEKTIAAKRAGVTCIVLPAENKKDFYDLAAFITEGLEVHFVEHYREIFDIAFPDEQAEALAVER
B2: TFAM (natural protein, UniProt Q00059 43-246, looked up)
chain: SSVLASCPKKPVSSYLRFSKEQLPIFKAQNPDAKTTELIRRIAQRWRELPDSKKKIYQDAYRAEWQVYKEEISRFKEQLTPSQIMSLEKEIMDKHLKRKAMTKKKELTLLGKPKRPRSAYNVYVAERFQEAKGDSPQEKLKTVKENWKNLSDSEKELYIQHAKEDETRYHNEMKSWEEQMIEVGRKDLLRRTIKKQRKYGAEEC
modifications: NT-547-maleimide dye on cysteine (for microscale thermophoresis)
notes: TFAM, the mitochondrial transcription and mtDNA packaging factor and a LonP1 substrate; recombinant; It was unlabelled in the proteolysis assays; also called TFAM substrate
B3: p.(Tyr565His) LonP1 mutant lacking the mitochondrial targeting sequence, C-terminal 6xHis (enzyme, human, UniProt P36776-1 115-959, looked up)
chain: B1 chain with Y451H
notes: A variant found in a patient and in ExAC; also called Y565H; hTyr565His
B4: p.(Glu733Lys) LonP1 mutant lacking the mitochondrial targeting sequence, C-terminal 6xHis (enzyme, human, UniProt P36776-1 115-959, looked up)
chain: B1 chain with E619K
notes: A variant found in a patient and in ExAC; also called E733K; hGlu733Lys

Tests used:
[1] = target: T1, TFAM (UniProt Q00059 43-246, NT-547-maleimide dye on cysteine (for microscale thermophoresis)); test: MST; 4 mM AMP-PNP
T1 chain: B2 chain

[2] = target: B4; test: MST; TFAM labelled with NT-547-maleimide, unlabelled LonP1 titrated (2.3-4650 nM); MST buffer (50 mM Tris-HCl pH 8.0, 10 mM MgCl2, 10% glycerol) without nucleotide; 24°C; Monolith NT.115; conditions: both partners purified
[3] = target: T2, wild-type LonP1 lacking the mitochondrial targeting sequence, C-terminal 6xHis (human, UniProt P36776-1 115-959); test: as above; conditions: both partners purified
T2 construct: called the mature protein; Hexamer at low salt with ATP, mostly monomer in 1 M NaCl without ATP; also called WT; LonP1 wild-type; source: pET-20b, induced with 1 mM IPTG, purified (His-Select nickel, HiTrap Heparin, MonoQ, Superdex 200)
T2 sequence (looked up): B1 chain

[4] = target: T3, 1:1 mixture of wild-type and p.(Glu733Lys) LonP1, oligomerised by dialysis from high salt (human, UniProt P36776-1 115-959; P36776-1 115-959, p.(Glu733Lys)); test: MST; as a3, with 4 mM AMP-PNP; LonP1 forms or 1:1 mixtures titrated (2.3-4650 nM) against labelled TFAM; 24°C; conditions: both partners purified
T3 construct: as the chain of m1; as the chain of m3; The make-up of the oligomers (heterohexamers or separate homohexamers) was not determined; also called WT/E733K; WT + E733K; source: equimolar purified LonP1 forms mixed in high salt, oligomerised by dialysis

[5] = target: T4, 1:1 mixture of wild-type and p.(Tyr565His) LonP1, oligomerised by dialysis from high salt (human, UniProt P36776-1 115-959; P36776-1 115-959, p.(Tyr565His)); test: as above; conditions: both partners purified
T4 construct: as the chain of m1; as the chain of m2; also called WT/Y565H; WT + Y565H; source: equimolar purified LonP1 forms mixed in high salt, oligomerised by dialysis

[6] = target: the molecule itself; test: SEC; Superose 6 Increase 10/300; 20 mM Tris-HCl pH 8.0, 10% glycerol, 2 mM DTT, 50 mM NaCl, 10 mM MgCl2, samples incubated 10 min at 37°C with ATP (1 mM in the methods, 4 mM in the legend); fractions on SDS-PAGE, size calibration curve; in 1 M NaCl without ATP higher-order oligomers were largely prevented

B1
Kd [1]: 2200 nM

B2
Kd [2]: 1520 nM
Kd [3]: 1360 nM
Kd [4]: 2170 nM
Kd [5]: 3220 nM

B3
stoichiometry N [6]: 6

B4
stoichiometry N [6]: 6

— PMC5932559, “Defective mitochondrial protease LonP1 can cause classical mitochondrial disease” (Human Molecular Genetics, 2018)
